# Measured values published in paper PMC3598421.
# T1: BdSWN5 (Brachypodium distachyon, UniProt I2E2W5 1-346)
# T1 sequence: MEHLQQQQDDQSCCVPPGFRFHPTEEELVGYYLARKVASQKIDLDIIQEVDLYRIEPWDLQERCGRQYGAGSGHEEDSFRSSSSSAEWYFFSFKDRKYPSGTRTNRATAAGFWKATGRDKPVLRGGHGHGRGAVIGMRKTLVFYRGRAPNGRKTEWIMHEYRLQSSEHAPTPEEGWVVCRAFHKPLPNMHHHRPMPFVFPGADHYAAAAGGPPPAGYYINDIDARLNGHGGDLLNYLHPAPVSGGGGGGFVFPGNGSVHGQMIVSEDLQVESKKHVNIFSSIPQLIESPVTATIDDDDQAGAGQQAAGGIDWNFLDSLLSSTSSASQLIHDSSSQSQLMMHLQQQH
# B1: SNBE1 M1 motif (dsDNA)
# DNA 1: AGCATACATTTATAGGAAGCGTATTCTCGCAGTCA
# DNA 2: TGACTGCGAGAATACGCTTCCTATAAATGTATGCT
# B2: SNBE2 M2 motif (dsDNA)
# DNA 1: TTTTACATTGCATATGCTTTGTATCAATTGCCCAA
# DNA 2: TTGGGCAATTGATACAAAGCATATGCAATGTAAAA
# Molecular target: T1, BdSWN5
# Experiment: competition
row,Binder,binding result
1,B1,no binding
2,B2,no binding
